Consider 2 substances from PMC11331516.

Experiment [1] has as its target Bovine κ-casein (bovine). In words: PFG NMR diffusion; κ-casein 20% (w/v) in 100% D2O, 298 K; MODSTE pulse sequence, td 50-800 ms; gel-like network.
Experiment [2] addresses Bovine κ-casein (bovine). In words: PFG NMR diffusion; κ-casein 0.1 to 10% (w/v) in 100% D2O, pH 7.0, 298 K; STE and MODSTE pulse sequences, td 50-800 ms; fresh samples; below the threshold of gel formation.
Experiment [3] addresses Bovine κ-casein labelled with EDANS-C2-maleimide (donor) or DABCYL-C2-maleimide (acceptor) (bovine). In words: FRET or BRET; as the FRET titration but with 5 mM sodium phosphate buffer added; data not shown.
Experiment [4] shares this target. The experiment in a line: FRET or BRET; time-resolved FRET titration; donor (EDANS) κ-casein constant at 0.01% (5 μM), acceptor (DABCYL) κ-casein 0.01-0.38% (5-200 μM); in H2O, 293 K; indefinite isodesmic association, adding a monomer to an associate.

In the experiment with Bovine κ-casein (bovine) [1], Bovine κ-casein (natural protein) had a lifetime of molecules within the gel network (20% solution) of 0.98 s and a percent of molecules in the gel network (20% solution) of 34%. In addition, in the experiment with Bovine κ-casein (bovine) [2], the fraction of molecules within the associate, pmin(0) (0.5% solution) worked out at 0.23; the lifetime of molecules within the associate (0.5% solution) was found to be 0.53 s; the stoichiometry N was less than 31 molecules.
The substance “Bovine κ-casein labelled with EDANS-C2-maleimide (donor) or DABCYL-C2-maleimide (acceptor) (natural protein)” returned a fold decrease of the equilibrium association constant with 5 mM sodium phosphate buffer against the aqueous solution in experiment [3] of 3 fold. In experiment [4], this substance yielded a Kd of 9.5 µM.
